One substance from paper PMC8431534 can be followed below.

This assay has as its target Myc-tagged PTK7 (Xenopus protein tyrosine kinase 7, full length) (Xenopus). Kind of assay: co-IP; HEK293 cells co-transfected with Myc-tagged PTK7 and GFP-tagged constructs; immunoprecipitation with anti-Myc, Dynabeads Protein G, Western blot (Figure 5B).

In turn, “ΔkPTK7-GFP (Xenopus Ptk7 with the kinase domain deleted, GFP-tagged) (receptor)” came in with a quantity co-precipitated with full-length PTK7 in respect to input, densitometry, relative to PTK7 = 1 (relative to PTK7 = 1) of 2.6.
